The nature of data set [1]: Ca2+-responsive mFAP Ca2+ titrations. The class given is binding. How it is done:
In measuring Ca^2+ affinity of mFAPs on a Synergy Neo2 hybrid multi-mode reader (Fig. 4d, e, f and Supplementary Figs. 10c, f, i, 11c, f, i, 13c, f, i, 16b), large-scale purified proteins[49] were aliquoted in technical triplicate to a final concentration of 500 nM with 5.00 μM DFHBI in eleven serial dilutions ( 10 dilution factor) of CaCl2 (Sigma Aldrich) starting from either 900 mM or 90.0 mM CaCl2 (diluted using high-salt Tev cleavage buffer) including a twelfth condition without CaCl2. Final volumes were 200 μL in flat bottom, black polystyrene, non-binding surface 96-well microplates (Corning 3650). Fluorescence endpoints were measured using excitation wavelength λex = 484 nm and emission wavelength λem = 508 nm. Background fluorescence endpoints of wells with identical chromophore and CaCl2 concentrations lacking protein (substituted for equivalent volumes of high-salt Tev cleavage buffer) were measured in technical triplicate, averaged per condition, and subtracted from protein measurement averages of the same conditions.
For Ca^2+ titrations of EF4n_mFAP2a and EF4n_mFAP2b (Supplementary Fig. 13c), a small amount of Chelex 100 sodium form (Sigma Aldrich) was added to purified protein (produced by large-scale protein purification and SEC purification[49]) and nutated at 4 °C overnight. EF4n_mFAP2a was aliquoted in technical triplicate to a final concentration of 8.00 μM with 80.0 μM DFHBI and EF4n_mFAP2b was aliquoted in technical triplicate to a final concentration of 6.25 μM with 43.4 μM DFHBI, in eleven serial dilutions ( 10 dilution factor) of CaCl2 starting from 9.00 mM or 4.00 mM CaCl2 (diluted using high-salt Tev cleavage buffer pre-treated with Chelex 100) including a twelfth condition without CaCl2. Final volumes were 25.0 μL in flat bottom, black polystyrene, non-binding surface 96-well half-area microplates (Corning 3686) or 200 μL in flat bottom, black polystyrene, non-binding surface 96-well microplates (Corning 3650). Fluorescence endpoints were measured for EF4n_mFAP2a using excitation wavelength λex = 478 nm and emission wavelength λem = 520 nm, and for EF4n_mFAP2b using excitation wavelength λex = 484 nm and emission wavelength λem = 508 nm. Background fluorescence endpoints of wells with identical chromophore and CaCl2 concentrations lacking protein (substituted for equivalent volumes of high-salt Tev cleavage buffer) were measured in technical triplicate, averaged per condition, and subtracted from protein measurement averages of the same conditions. For non-linear least squares fitting to obtain Kd values, means were fit to a single-binding site isotherm function where Ca^2+-binding sites were modeled independently with a Hill coefficient of 1.

Data set [2] has as its system human induced pluripotent stem cell (hiPSC)-derived cardiomyocytes. In words: Contraction and SR Ca2+ transient imaging of cardiomyocytes. The class given is cell-based. To be noted: SR-targeted; image acquisition ~16.7 Hz. How it is done: hiPSC culture and cardiomyocyte differentiation: Undifferentiated IMR90 human induced pluripotent stem cells (hiPSCs) (WiCell) were maintained in mTeSR-1 (StemCell Technologies) on tissue culture plastic coated with Matrigel diluted 1:60 (Corning) at 37 °C and 5% CO2. Cardiomyocytes were differentiated using a monolayer-based directed differentiation protocol. hiPSCs were dissociated into a single cell suspension using Versene (Life Technologies) and plated at a high density (1.5–2.5·10^5 cells cm^−2) in mTeSR containing 10 µM Y-27632 ROCK inhibitor onto Matrigel-coated plates. Twenty-four hours after plating, media was replaced with fresh mTeSR. […]
Contraction and SR Ca^2+ transient imaging: Leica DMI8 microscope controlled by MetaMorph Imaging software was used to image contraction and Ca^2+ transients of the SR in CMs. […] For mapping contraction, three different ROI traces were hand-drawn, and displacement of cells were measured in the fluorescence channel. […] In order to quantify tissue-level Ca^2+ fluxes during cardiac contraction cycling, fluorescence fold-change over the whole field of view was calculated for each frame then temporally matched with contraction data. Fluorescence fold-change in each frame was calculated by Eq. (11) where F is the fluorescence per frame, and F0 is the fluorescence of the frame with the minimum fluorescence (Fig. 5f and Supplementary Fig. 19b). […]

Data set [3] can be described thus: Circular dichroism. It counts as physicochemical. To be noted: absence of DFHBI. On the procedure:
Circular dichroism (CD) measurements were recorded at 25 °C in a 1 mm cuvette on an AVIV model 420 CD spectrometer (Biomedical, Inc.). mFAP2 and mFAP2.1 were purified by large-scale protein purification and SEC purification[49] in phosphate-buffered saline (PBS) (25.0 mM phosphate, 150 mM NaCl, pH 7.40), and far-ultraviolet CD wavelength scans recorded from 195 nm to 260 nm. mFAP2 was measured at 0.441 mg mL^−1 and mFAP2.1 at 0.500 mg mL^−1 in Na2HPO4-citrate buffer with pH adjusted to 7.75, 3.96, or 2.93 using NaOH and HCl. The reported data was background-subtracted using buffer only contols (Supplementary Fig. 1b, c).
On the technique in general: Circular dichroism is widely used to follow secondary structure.

The nature of data set [4]: pH-sensitivity of β-barrel variants (fluorescence ratio fold-change pH 3.66-7.36). The class given is biochemical. How it is done: In measuring pH-sensitivity of β-barrel variants (Supplementary Fig. 1f) in technical triplicate, 140 μL of Na2HPO4-citrate (pH 7.36 or 3.66) supplemented with 150 mM NaCl and 1.43 μM DFHBI was combined with 10.0 μL of small-scale purified protein[49] for a final concentration of 1.33 μM DFHBI. Fluorescence endpoints were measured by exciting at λex = 387 nm or λex = 483 nm and measuring fluorescence emission at λem = 501 nm or λem = 504 nm, respectively. Without background subtraction, the fluorescence ratio fold-change from pH 3.66–7.36 was calculated as:2 FluorescenceRatioFold-ChangepH3.66-7.36=FpH3.66λex=387nm,λem=501nm/FpH3.66λex=483nm,λem=504nm/FpH7.36λex=387nm,λem=501nm/FpH7.36λex=483nm,λem=504nm, where FpHλex,λem is the mean of three technical replicates of endpoint fluorescence measurements at the subscripted pH value and superscripted fluorescence excitation (λex) and fluorescence emission (λem) wavelengths.

Data set [5] in a line: Fluorescence intensity of circularly permuted mFAP2a variants. It counts as biochemical. To be noted: equimolar concentration. How it is done: To measure the fluorescence intensities of circularly permuted mFAP2a variants (Supplementary Fig. 22b, d), fluorescence endpoints were measured on a Synergy Neo2 hybrid multi-mode reader (BioTek) in flat bottom, black polystyrene, non-binding surface 96-well microplates (Corning 3650) or half-area microplates (Corning 3686). Fluorescence endpoints were measured in technical triplicate by exciting at λex = 488 nm and measuring fluorescence emission at λem = 510 nm (Supplementary Fig. 22b), or exciting at λex = 468 nm and measuring fluorescence emission at λem = 530 nm (Supplementary Fig. 22d). […]

As a reminder, the Kd is the concentration at which binding is half-saturated.

B1: EF1n_mFAP2b: negatively allosteric Ca2+-responsive mFAP, one EF-hand motif (protein)
chain: SRAAQLLPGTWQVTMTNEDGQTSQGQWHFQPRSPYTMDIVAQGTISDGRPIVGYGKATVKTPDTLDIDITYPSLGNIKAQGQITMDSPTQFKWDAHVDKDGDGYISAAEAAAQTKILTGTLQRQE
In the case of B1, the “Ca2+-responsiveness / allostery between DFHBI and Ca2+ binding” value in data set [1] (Ca2+ titration with excess DFHBI) was “negative allostery”. Besides, the Kd in data set [1] (excess DFHBI compared to protein, Hill coefficient of 1) came out at 260 µM. The “response time to Ca2+ fluxes” value in data set [2] is “less than 60 ms”.

B2: mFAP2.1: mFAP2 mutational variant (protein)
chain: SRAAQLLPGTWQVTMTNEDGQTSQGQMHFQPRSPYTMDVVAQGTISDGRTIVGYGKVTVKTPDTLDVDITYPSLGNIKAQGQITMDSPTQFKFDATTKGAGNFTGRLTGTLQRQE
Consider B2, for which the “stability by circular dichroism compared to mFAP2” value in data set [3] was “improved stability at pH 2.93”.

B3: mFAP2.2: most pH-responsive mutant of SDM library (protein)
chain: SRAAQLLPGTWQVTMTNEDGQTSQGQMHFQPRSPYTMDVVAQGTISDGRPIVGYGKVTVKTPDTLDVDITYPSLGNIKAQGQITMDSPTQFKFDATTKGAGNFTGRLTGTLQRQE
For B3, the “fluorescence ratio fold-change from pH 3.66–7.36, higher than mFAP2.1” value in data set [4] is reported as ~ 1.3 fold.

B4: cp35-34_mFAP2a_12: brightest cpmFAP tested, de novo designed α-helical linker (protein)
chain: QEMDIVAQGTISDGRPIVGYGKATVKTPDTLDIDITYPSLGNIKAQGQITMDSPTQFKWDATTKGENDFHGRLTGTLQRTEEAKEATEEARRRGITTQAAQLLPGTWQATFTNEDGQTSQGQWHFQPRDG
For the molecule B4, the “fluorescence intensity relative to mFAP2a” value in data set [5] is listed as ~ 93%.

(Values after article PMC7870846, “Incorporation of sensing modalities into de novo designed fluorescence-activating proteins” (Nature Communications, 2021).)
